Measured values taken from PMC5995969, “Structural basis for the regulation of human 5,10-methylenetetrahydrofolate reductase by phosphorylation and S-adenosylmethionine inhibition” (Nature Communications, 2018).

B1: HsMTHFR38–644 (domain or fragment)
chain: not shown
notes: Not phosphorylated; Native and SeMet-derivatized protein were crystallized; also called truncated HsMTHFR; crystallized construct
B2: CIP-treated HsMTHFR1–656 (dephosphorylated) (enzyme)
chain: not shown
notes: human 5,10-methylenetetrahydrofolate reductase (MTHFR), residues 1–656, numbered according to NP_005948.3; Same construct as m1 after removal of 9 or 10 phosphate groups by CIP; Some residues of the cleaved C-terminal tag may be left; also called HsMTHFR_(1–656) (CIP); dephosphorylated HsMTHFR_(1–656); not shown: FLAG, C-terminal, cleaved; His10, C-terminal, cleaved
B3: full-length recombinant human MTHFR (HsMTHFR1–656), as purified (phosphorylated) (enzyme)
chain: not shown
modifications: phosphorylated with partial occupancy, up to ten sites occupied simultaneously: Ser9, Ser10, Ser18, Ser20, Ser21, Ser23, Ser25, Ser26, Ser29, Ser30, Thr34, Tyr90, Thr94, Ser103, Ser394, Thr451
notes: human 5,10-methylenetetrahydrofolate reductase (MTHFR), 656 amino acids, residues 1–656, numbered according to NP_005948.3; also called 5,10-methylenetetrahydrofolate reductase; phosphorylated HsMTHFR_(1–656); source: Sf9 (baculovirus), purified (Ni-NTA, Superdex 200, tag cleaved by TEV protease, re-passaged over Ni-NTA); not shown: FLAG, C-terminal, cleaved; His10, C-terminal, cleaved

Target: the molecule itself
Assay: native MS; protein desalted into 50 mM ammonium acetate pH 6.5, infused directly, positive ion ESI-QTOF; as purified or after CIP treatment

Protein | stoichiometry N
B1 | 2
B2 | 2
B3 | 2
